Results as given in article PMC7515726.

B1: VRK1 kinase (enzyme)
chain: MPRVKAAQAGRPGPAKRRLAEQFAAGEVLTDMSRKEWKLGLPIGQGGFGCIYLADTNSSKPVGSDAPCVVKVEPSDNGPLFTELKFYQRAAKPEQIQKWIRTHKLKYLGVPKYWGSGLHDKNGKSYRFMIMDRFGSDLQKIYEANAKRFSRKTVLQLSLRILDILEYIHEHEYVHGDIKASNLLLSHKNPDQVYLVDYGLAYRYCPDGVHKEYKEDPKRCHDGTLEFTSIDAHKGVAPSRRGDLEILGYCMIQWLSGCLPWEDNLKDPNYVRDSKIRYRDNVAALMEKCFPEKNKPGEIAKYMESVKLLEYTEKPLYQNLRDILLQGLKAIGSKDDGKLDFSAVENGSVKTRPASKKRKKEAEESAVCAVEDMECSDTQVQEAAQTRSVESQGAIHGSMSQPAAGCSSSDSSRRQQHLGLEQDMLRLDRRGSRTRKKAQK
B2: OGT O-GlcNAc transferase (enzyme)
chain: MASSVGNVADSTEPTKRMLSFQGLAELAHREYQAGDFEAAERHCMQLWRQEPDNTGVLLLLSSIHFQCRRLDRSAHFSTLAIKQNPLLAEAYSNLGNVYKERGQLQEAIEHYRHALRLKPDFIDGYINLAAALVAAGDMEGAVQAYVSALQYNPDLYCVRSDLGNLLKALGRLEEAKACYLKAIETQPNFAVAWSNLGCVFNAQGEIWLAIHHFEKAVTLDPNFLDAYINLGNVLKEARIFDRAVAAYLRALSLSPNHAVVHGNLACVYYEQGLIDLAIDTYRRAIELQPHFPDAYCNLANALKEKGSVAEAEDCYNTALRLCPTHADSLNNLANIKREQGNIEEAVRLYRKALEVFPEFAAAHSNLASVLQQQGKLQEALMHYKEAIRISPTFADAYSNMGNTLKEMQDVQGALQCYTRAIQINPAFADAHSNLASIHKDSGNIPEAIASYRTALKLKPDFPDAYCNLAHCLQIVCDWTDYDERMKKLVSIVAEQLEKNRLPSVHPHHSMLYPLSHGFRKAIAERHGNLCLDKINVLHKPPYEHPKDLKLSDGRLRVGYVSSDFGNHPTSHLMQSIPGMHNPDKFEVFCYALSPDDGTNFRVKVMAEANHFIDLSQIPCNGKAADRIHQDGIHILVNMNGYTKGARNELFALRPAPIQAMWLGYPGTSGALFMDYIITDQETSPAEVAEQYSEKLAYMPHTFFIGDHANMFPHLKKKAVIDFKSNGHIYDNRIVLNGIDLKAFLDSLPDVKIVKMKCPDGGDNPDSSNTALNMPVIPMNTIAEAVIEMINRGQIQITINGFSISNGLATTQINNKAATGEEVPRTIIVTTRSQYGLPEDAIVYCNFNQLYKIDPSTLQMWANILKRVPNSVLWLLRFPAVGEPNIQQYAQNMGLPQNRIIFSPVAPKEEHVRRGQLADVCLDTPLCNGHTTGMDVLWAGTPMVTMPGETLASRVAASQLTCLGCLELIAKSRQEYEDIAVKLGTDLEYLKKIRGKVWKQRISSPLFNTKQYTMELERLYLQMWEHYAAGNKPDHMIKPVEVTESA
B3: RCC1 (regulator of chromatin condensation) (natural protein)
chain: MPPKRIAKRRSPPEDAIPKSKKVKVSHRSHNTEPGLVLTLGQGDVGQLGLGESVLERKKPALVPLLQDVVQAEAGGMHTVCLSQSGQVYSFGCNDEGALGRDTSVEGSEMVPGKVELQEKVVQVSAGDSHTAALTEDGRVFLWGSFRDNNGVIGLLEPMKKSMVPVQVQLDAPVVKVASGNDHLVMLTNDGDLYTLGCGEQGQLGRVPELFANRGGRQGLGRLLVPRCVLLKSRGTRGRVRFQDAFCGAYFTFAISREGHVYGFGLSNYHQLGTPGTGSCFIPQNLTSFKNSTKSWVGFSGGQHHTVCMDSEGKAYSLGRAEYGRLGLGEGAEEKSIPTLISRLPVVSSVACGASVGYAVSKDGRVFAWGMGTNYQLGTGQDEDAWSPVEMTGKQLENRVVLTVSSGGQHTVLLVKDQAQS
B4: cohesin complex protein SMC1A (natural protein)
chain: MGFLKLIEIENFKSYKGRQIIGPFQRFTAIIGPNGSGKSNLMDAISFVLGEKTSNLRVKTLRDLIHGAPVGKPAANRAFVSMVYSEEGAEDRTFARVIVGGSSEYKINNKVVQLHEYSEELEKLGILIKARNFLVFQGAVESIAMKNPKERTALFEEISRSGELAQEYDKRKKEMVKAEEDTQFNYHRKKNIAAERKEAKQEKEEADRYQRLKDEVVRAQVQLQLFKLYHNEVEIEKLNKELASKNKEIEKDKKRMDKVEDELKEKKKELGKMMREQQQIEKEIKEKDSELNQKRPQYIKAKENTSHKIKKLEAAKKSLQNAQKHYKKRKGDMDELEKEMLSVEKARQEFEERMEEESQSQGRDLTLEENQVKKYHRLKEEASKRAATLAQELEKFNRDQKADQDRLDLEERKKVETEAKIKQKLREIEENQKRIEKLEEYITTSKQSLEEQKKLEGELTEEVEMAKRRIDEINKELNQVMEQLGDARIDRQESSRQQRKAEIMESIKRLYPGSVYGRLIDLCQPTQKKYQIAVTKVLGKNMDAIIVDSEKTGRDCIQYIKEQRGEPETFLPLDYLEVKPTDEKLRELKGAKLVIDVIRYEPPHIKKALQYACGNALVCDNVEDARRIAFGGHQRHKTVALDGTLFQKSGVISGGASDLKAKARRWDEKAVDKLKEKKERLTEELKEQMKAKRKEAELRQVQSQAHGLQMRLKYSQSDLEQTKTRHLALNLQEKSKLESELANFGPRINDIKRIIQSREREMKDLKEKMNQVEDEVFEEFCREIGVRNIREFEEEKVKRQNEIAKKRLEFENQKTRLGIQLDFEKNQLKEDQDKVHMWEQTVKKDENEIEKLKKEEQRHMKIIDETMAQLQDLKNQHLAKKSEVNDKNHEMEEIRKKLGGANKEMTHLQKEVTAIETKLEQKRSDRHNLLQACKMQDIKLPLSKGTMDDISQEEGSSQGEESVSGSQRTSSIYAREALIEIDYGDLCEDLKDAQAEEEIKQEMNTLQQKLNEQQSVLQRIAAPNMKAMEKLESVRDKFQETSDEFEAARKRAKKAKQAFEQIKKERFDRFNACFESVATNIDEIYKALSRNSSAQAFLGPENPEEPYLDGINYNCVAPGKRFRPMDNLSGGEKTVAALALLFAIHSYKPAPFFVLDEIDAALDNTNIGKVANYIKEQSTCNFQAIVISLKEEFYTKAESLIGVYPEQGDCVISKVLTFDLTKYPDANPNPNEQ
B5: tyrosine-protein kinase BAZ1B (enzyme)
chain: MAPLLGRKPFPLVKPLPGEEPLFTIPHTQEAFRTREEYEARLERYSERIWTCKSTGSSQLTHKEAWEEEQEVAELLKEEFPNWYEKLVLEMVHHNTASLEKLVDSAWLEIMTKYAVGEECDFEVGKEKMLKVKIVKIHPLEKVDEEAVEKKSDGACDSPSSDKENSSQMAQDLQKKETVVKEDEGRRESINDRARRSPRKLPTSLKKGERKWAPPKFLPHKYDVKLQNEDKIISNVPADSLIRTERPPNKEILRYFIRHNALRAGTGENAPWVVEDELVKKYSLPSKFSDFLLDPYKYMTLNPSTKRRNTGSPDRKPSKKPKRDSSSLSSPLNPKLWCHVHLEKSLNGPPLKVKNSKNSKSPEEHLEGVMKIMSPNNNKLHSFHIPKKGPAAKKPGKHSDKPLKAKGRGKGILNGQKSTGNSKSPSKCVKTPKTKMKQMTLLDMAKGTQKMTRTPRSSGGVPRSSGKPHKHLPPAALHLIAYYKENKDKEDKKSALSCVISKTARLLSNEDRARLPEELRALVQKRYELLEHKKRWASMSEEQRKEYLKKKRQELKERLREKAKERREREMLERLEKQKRFEDQELGGRNLPAFRLVDTPEGLPNTLFGDVALVVEFLSCYSGLLLPDAQYPITAVSLMEALSADKGGFLYLNRVLVILLQTLLQDEIAEDYGELGMKLSEIPLTLHSVSELVRLCLRRCDVQEDSEGSETDDNKDSTPFEDNEVQDEFLEKLETSEFFELTSEEKLRILTALCHRILMTYSVQDHMETRQQVSAELWKERLAVLKEENDKKRAEKQKRKEMEARNKENGKEENVLGKVDRKKEIVKIEQQVEVEADDMISAVKSRRLLSMQAKRKREIQERETKVRLEREAEEERMRKHKAAAEKAFQEGIAKAKLVLRRTPIGTDRNHNRYWLFSNEVPGLFIEKGWVHNSIDYRFKHHRKDHSNLPDDDYCPRSKKANLGKNASVNAHHGPALEAVETTVPKQGQNLWFLCDSQKELDELLSCLHPQGIRESQLKERLEKRYQEITHSIYLARKPNLGLKSCDGNQELLNFLRSDLIEVATRLQKGGLGYMEGTSEFEARVISLEKLKDFGECVIALQASVIKKFLQGFMAPKQKKRKLQSEDSTKSEEVDEEKKMVEEAKVASALEKWKTAIREAQTFSRMHVLLGMLDACIKWDMSAENARCKVCRKKGEDDKLILCDECNKAFHLFCLRPALYEVPDGEWQCPACQPPTARRNSRGRNYTEESTSEGSEGDESGEEEEEEEEEEEEEEDYEVAGLRLRPRKTIRGKQSVIPAARPGRPPGKKSHPARRSRPKDDPEVDDLVLQTKRISRRQSLELQKCEDILHKLVKYRFSWPFREPVTRDEAEDYYDVIEHPMDFQTIQNKCSCGNYRSVQEFLTDMKQVFANAELYNCRGSHVLSCMEKTEQCLLALLQKHLPGHPYVRRKRRKFPDRLADDEGDSDSESVGQSRGRRQKK

Columns and labels:
Test in all cases: affinity purification with mass spectrometry
[1] = target: Nuc1, acidic patch mutant nucleosome (hH2A.Dx10), biotinylated 185 bp 601 DNA (human) (UniProt P62807)
[2] = target: Nuc3, disk patch 3 mutant nucleosome (hH3.2x10, hH4x24, hH2B.Cx9), biotinylated 185 bp 601 DNA (human) (UniProt P20671)
[3] = target: Nuc2, disk patch 2 mutant nucleosome (hH2A.Dx2, hH2B.Cx8), biotinylated 185 bp 601 DNA (human) (UniProt Q71DI3)

Binder	fold decrease in binding vs wild-type nucleosome [1]	fold decrease in binding vs wild-type nucleosome [2]	fold decrease in binding vs wild-type nucleosome [3]
B1	1.61 fold	–	–
B2	1.69 fold	–	–
B3	22 fold	2.1 fold	3.1 fold
B4	1.35 fold	–	–
B5	1.94 fold	–	–
